# B1: Protein Nef (Human immunodeficiency virus type 1 group M subtype B (isolate HXB2) (HIV-1)), P04601 (parent)
# chain: MGGKWSKSSVIGWPTVRERMRRAEPAADRVGAASRDLEKHGAITSSNTAATNAACAWLEAQEEEEVGFPVTPQVPLRPMTYKAAVDLSHFLKEKGGLEGLIHSQRRQDILDLWIYHTQGYFPDWQNYTPGPGVRYPLTFGWCYKLVPVEPDKIEEANKGENTSLLHPVSLHGMDDPEREVLEWRFDSRLAFHHVARELHPEYFKNC
# partner: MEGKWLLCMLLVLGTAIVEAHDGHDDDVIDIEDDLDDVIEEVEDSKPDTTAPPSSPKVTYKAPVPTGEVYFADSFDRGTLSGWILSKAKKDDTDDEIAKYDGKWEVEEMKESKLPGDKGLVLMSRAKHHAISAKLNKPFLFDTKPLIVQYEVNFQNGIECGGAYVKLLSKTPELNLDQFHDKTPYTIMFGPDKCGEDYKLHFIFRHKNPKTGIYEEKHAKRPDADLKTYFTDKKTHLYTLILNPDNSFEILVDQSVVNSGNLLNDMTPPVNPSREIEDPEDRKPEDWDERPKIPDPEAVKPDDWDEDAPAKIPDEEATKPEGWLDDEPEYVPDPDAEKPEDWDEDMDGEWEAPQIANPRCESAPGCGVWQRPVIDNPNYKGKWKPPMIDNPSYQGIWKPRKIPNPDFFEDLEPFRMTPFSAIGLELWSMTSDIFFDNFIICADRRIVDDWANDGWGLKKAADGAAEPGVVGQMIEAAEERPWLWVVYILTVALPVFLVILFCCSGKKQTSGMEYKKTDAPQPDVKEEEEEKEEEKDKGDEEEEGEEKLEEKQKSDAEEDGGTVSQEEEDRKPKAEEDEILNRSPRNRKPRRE
# Variants of: B1
# Settings: with calx_human CANX
row,Variant,effect of a mutation on the interaction
1,G2A,disrupting interaction strength
